Experimental data reported in paper PMC3463765.
“And” between values parts separate entries of the source, which are not always exact repeats. Equal entries are not always repeated.

Tests used:
[1] = biological target: horse serum butyrylcholinesterase (horse); assay: SDS-PAGE without reducing agent
[2] = biological target: horse serum butyrylcholinesterase (horse); assay: native gel or EMSA
[3] = biological target: horse serum butyrylcholinesterase (horse); assay: native gel or EMSA; remark: listed apart in the source

## horse serum butyrylcholinesterase (enzyme)
[1]
  stoichiometry N: 2
[2]
  stoichiometry N: 4
[3]
  stoichiometry N: 2 and 4
